We go through 17 molecules from patent US5741689A, “Methods to inhibit serine kinase activity and to alter intersubunit binding activity of phosphatidylinositol 3-kinase, and serine kinase active sequence of the same” (Ludwig Institute for Cancer Research, priority 1994, dated 1998).

For test [1], the target named is p85α subunit of PI3-kinase (bovine, full length, recombinant) (bovine) (UniProt P23727).
Test [2] deals with p110 subunit of PI3-kinase (bovine, wild type, recombinant) (bovine) (UniProt P32871). Nature of the test: GST fusion on glutathione-sepharose, p110 Sf9 lysate, bound PI3-kinase activity.
The target in test [3] is T1, PI3-kinase p85α/p110 complex (wild type, recombinant, expressed in Sf9 cells) (Bos taurus, UniProt P32871).
T1 construct: made in house; host or cells: Sf9 insect cells (baculovirus co-infection)
The experiment in a line: in vitro PI3-kinase assay on anti-p110 immunoprecipitates, p85α/p110 complex. The settings on record: 0.25 h; 0.3 mM Nbs2, 15 minutes at 22° C; FIG. 17 A lane 3; read-out: loss of PI3-kinase activity. It is filed as biochemical, bovine. As to the method: (§1) Insect cells were infected with p85α/p110 complex, (see FIG. 17, A, lanes 1-6) or p110 alone, (see FIG. 17, B, lanes 7-12). The immunoprecipitates were washed twice with PI3-kinase buffer (20 mM Tris-HCl, pH 7.5, 100 mM NaCl, 0.5 mM EDTA). The samples were untreated or treated with 0.3 mM 5,5'-Dithio-bis [2-nitrobenzoic acid] (Nbs2) for 15 minutes at 22° C. Excess reagent was removed by washing the complexes three times with PI3-kinase buffer and the immunoprecipitate was then incubated for 15 minutes at 22° C. with increasing concentrations of dithiothreitol (DTT). A control sample was incubated with DTT alone at a final concentration of 300 mM. The remaining DTT was removed by washing with lysis buffer and the immunoprecipitates were subjected to PI3-kinase assays or to in vitro protein kinase assays described below.
(§2) The experiment was carried out and the experimental results set forth in FIG. 17, A. In vitro PI3-kinase assays were performed on anti-p110 immunoprecipitates of these cells that had been treated as follows: untreated (see FIG. 17, A, lane 1 and 7); 300 mM DTT (lanes 2 and 8); treated with 0.3 mM Nbs2 (lanes 3 and 9); immunoprecipitates pretreated with 0.3 mM Nbs2 incubated with 3 mM DTT (lanes 4 and 10), 30 mM DTT (lanes 5 and 11); 300 mM DTT (lanes 6 and 12).

The target in test [4] is T2, PI3-kinase p110 subunit alone (wild type, recombinant, expressed in Sf9 cells) (Bos taurus, UniProt P32871).
T2 construct: made in house; host or cells: Sf9 insect cells (baculovirus)
The experiment in a line: in vitro PI3-kinase assay on anti-p110 immunoprecipitates, p110 alone. It is filed as biochemical, bovine. The note with it: 0.25 h; 0.3 mM Nbs2, 15 minutes at 22° C; FIG. 17 A lane 9; read-out: loss of PI3-kinase activity. The protocol: as §1, §2

Test [5] addresses p85β subunit of PI3-kinase (bovine, full length, recombinant) (bovine, UniProt P23726). The experiment in a line: GST-p110 fusion pull-down from Sf9 lysate expressing p85β.
Test [6] deals with p85α subunit of PI3-kinase (bovine, full length, recombinant) (bovine, UniProt P23727). Nature of the test: GST-p110 fusion pull-down from Sf9 lysate expressing p85α.
In test [7] the target is p110 subunit of PI3-kinase (bovine, wild type, recombinant) (bovine, UniProt P32871). Nature of the test: GST fusion on glutathione-sepharose, p110 Sf9 lysate, bound PI3-kinase activity. The protocol: GST fusion proteins of the various subdomains of p85α were constructed and immobilized on glutathione-sepharose beads, See FIG. 2, A. These proteins were used for affinity analysis with cell lysates prepared from Sf9 cells infected with a recombinant baculovirus expressing p110. The complexes were washed and subjected to PI3-kinase activity. GST alone, and GST p85α bound to glutathione-sepharose beads incubated with wild-type lysate were used as controls.

T1 sequence (P32871 whole entry): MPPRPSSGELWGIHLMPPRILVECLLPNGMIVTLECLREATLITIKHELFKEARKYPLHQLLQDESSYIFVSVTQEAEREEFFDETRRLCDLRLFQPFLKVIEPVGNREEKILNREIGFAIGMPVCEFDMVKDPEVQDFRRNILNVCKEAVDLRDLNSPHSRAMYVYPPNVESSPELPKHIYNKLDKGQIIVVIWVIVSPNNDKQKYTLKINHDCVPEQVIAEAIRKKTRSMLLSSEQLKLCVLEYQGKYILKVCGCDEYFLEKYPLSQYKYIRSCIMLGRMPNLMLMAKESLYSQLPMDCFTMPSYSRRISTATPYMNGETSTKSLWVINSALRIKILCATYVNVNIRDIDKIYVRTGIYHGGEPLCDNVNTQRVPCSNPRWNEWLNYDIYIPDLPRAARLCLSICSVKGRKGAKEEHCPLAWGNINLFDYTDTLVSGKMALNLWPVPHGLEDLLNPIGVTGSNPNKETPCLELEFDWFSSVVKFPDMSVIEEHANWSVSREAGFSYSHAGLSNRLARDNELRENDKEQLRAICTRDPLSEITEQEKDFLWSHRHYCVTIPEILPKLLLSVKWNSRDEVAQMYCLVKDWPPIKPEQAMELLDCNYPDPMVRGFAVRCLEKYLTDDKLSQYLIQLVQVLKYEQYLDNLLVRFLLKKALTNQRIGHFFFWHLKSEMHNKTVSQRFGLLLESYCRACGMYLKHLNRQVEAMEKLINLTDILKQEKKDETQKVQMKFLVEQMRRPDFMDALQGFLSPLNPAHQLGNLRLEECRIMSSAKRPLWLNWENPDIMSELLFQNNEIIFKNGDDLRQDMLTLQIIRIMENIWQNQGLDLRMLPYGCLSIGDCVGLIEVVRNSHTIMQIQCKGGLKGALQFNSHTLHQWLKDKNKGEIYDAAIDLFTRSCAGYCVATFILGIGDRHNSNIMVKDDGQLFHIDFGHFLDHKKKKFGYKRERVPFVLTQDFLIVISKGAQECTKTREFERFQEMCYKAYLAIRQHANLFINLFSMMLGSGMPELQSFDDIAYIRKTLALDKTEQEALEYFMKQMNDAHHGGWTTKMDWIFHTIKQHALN
T1 sequence (P23727 whole entry partner): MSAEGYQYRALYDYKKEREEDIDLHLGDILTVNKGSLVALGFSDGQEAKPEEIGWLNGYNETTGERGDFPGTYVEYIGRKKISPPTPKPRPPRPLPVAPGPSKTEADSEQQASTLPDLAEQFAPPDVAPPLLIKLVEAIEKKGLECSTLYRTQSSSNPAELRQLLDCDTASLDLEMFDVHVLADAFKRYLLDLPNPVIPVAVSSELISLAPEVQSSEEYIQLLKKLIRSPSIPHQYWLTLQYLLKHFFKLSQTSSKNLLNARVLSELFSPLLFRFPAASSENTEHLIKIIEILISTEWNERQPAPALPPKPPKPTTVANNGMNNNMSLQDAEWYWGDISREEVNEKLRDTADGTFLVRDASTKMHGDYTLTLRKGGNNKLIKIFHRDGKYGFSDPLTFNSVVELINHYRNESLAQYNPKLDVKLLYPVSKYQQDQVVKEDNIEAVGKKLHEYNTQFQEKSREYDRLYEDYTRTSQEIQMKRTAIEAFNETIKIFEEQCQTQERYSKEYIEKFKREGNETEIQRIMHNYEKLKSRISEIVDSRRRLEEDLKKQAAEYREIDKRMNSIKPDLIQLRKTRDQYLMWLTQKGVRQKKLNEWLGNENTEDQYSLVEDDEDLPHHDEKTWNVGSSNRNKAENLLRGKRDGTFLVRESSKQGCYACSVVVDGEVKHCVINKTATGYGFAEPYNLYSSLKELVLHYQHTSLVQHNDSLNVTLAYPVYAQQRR
T2 sequence (P32871 whole entry): as the sequence (P32871 whole entry) above

Consider “p110 subunit of PI3-kinase (bovine, wild type, recombinant) (from UniProt P32871) (enzyme)”, for which the stoichiometry of phosphorylation of p85α, in vitro protein kinase assay (mol of phosphate per mol of p85α) in test [1] worked out at 0.9.
With GST-85βΔ445-469 (from UniProt P23726), the percent of the PI3-kinase activity bound as compared to wild type GSTp85β in test [2] turned out to be 65%.
For GST-85βΔ486-516 (from UniProt P23726), the percent of the PI3-kinase activity bound as compared to wild type GSTp85β in test [2] turned out to be 65%.
Take `O=C(O)c1cc(SSc2ccc([N+](=O)[O-])c(C(=O)O)c2)ccc1[N+](=O)[O-]` [Nbs2, 5,5'-Dithio-bis [2-nitrobenzoic acid]]: the inhibition at 300 µM in test [3] and in test [4] was around 95% throughout.

B1: GST-p110 fusion protein p110-1.4 (amino acids 20-81) (other)
chain: ILVECLLPNGMIVTLECLREATLITIKHELFKEARKYPLHQLLQDESSYIFVSVTQEAEREE
For the molecule B1, the binding result in test [5] and in test [6] was “no binding” each time.
Turning to MPPRPSSGELWGIHLMPPRILVECLLPNGMIVTLECLREATLITIKHEL (other) [GST-p110 fusion protein p110-1.1 (amino acids 1-49)], the binding result in test [5] and in test [6] was “no binding” throughout.

B2: GST-p110 fusion protein p110-5 (amino acids 760-960) (other)
chain: QLGNLRLEECRIMSSAKRPLWLNWENPDIMSELLFQNNEIIFKNGDDLRQDMLTLQIIRIMENIWQNQGLDLRMLPYGCLSIGDCVGLIEVVRNSHTIMQIQCKGGLKGALQFNSHTLHQWLKDKNKGEIYDAAIDLFTRSCAGYCVATFILGIGDRHNSNIMVKDDGQLFHIDFGHFLDHKKKKFGYKRERVPFVLTQDF
For B2, the binding result in test [5] and in test [6] was “no binding” throughout.

B3: GST-p110 fusion protein p110-3 (amino acids 577-1068) (other)
chain: RDEVAQMYCLVKDWPPIKPEQAMELLDCNYPDPMVRGFAVRCLEKYLTDDKLSQYLIQLVQVLKYEQYLDNLLVRFLLKKALTNQRIGHFFFWHLKSEMHNKTVSQRFGLLLESYCRACGMYLKHLNRQVEAMEKLINLTDILKQEKKDETQKVQMKFLVEQMRRPDFMDALQGFLSPLNPAHQLGNLRLEECRIMSSAKRPLWLNWENPDIMSELLFQNNEIIFKNGDDLRQDMLTLQIIRIMENIWQNQGLDLRMLPYGCLSIGDCVGLIEVVRNSHTIMQIQCKGGLKGALQFNSHTLHQWLKDKNKGEIYDAAIDLFTRSCAGYCVATFILGIGDRHNSNIMVKDDGQLFHIDFGHFLDHKKKKFGYKRERVPFVLTQDFLIVISKGAQECTKTREFERFQEMCYKAYLAIRQHANLFINLFSMMLGSGMPELQSFDDIAYIRKTLALDKTEQEALEYFMKQMNDAHHGGWTTKMDWIFHTIKQHALN
Regarding B3, the binding result in test [5] and in test [6] was “no binding” in each case.

B4: GST fusion of the SH3 domain of p85α (amino acids 1-86) (other)
chain: MSAEGYQYRALYDYKKEREEDIDLHLGDILTVNKGSLVALGFSDGQEAKPEEIGWLNGYNETTGERGDFPGTYVEYIGRKKISPPT
Regarding B4, in test [7], the binding result was “no binding”.

B5: GST-p110 fusion protein p110-1.7 (amino acids 37-128) (other)
chain: LREATLITIKHELFKEARKYPLHQLLQDESSYIFVSVTQEAEREEFFDETRRLCDLRLFQPFLKVIEPVGNREEKILNREIGFAIGMPVCEF
On to B5, for which the binding result in test [5] and in test [6] was “no binding” each time.

B6: GST fusion of the BCR homology region of p85α (amino acids 125-322) (other)
chain: PDVAPPLLIKLVEAIEKKGLECSTLYRTQSSSNPAELRQLLDCDTASLDLEMFDVHVLADAFKRYLLDLPNPVIPVAVSSELISLAPEVQSSEEYIQLLKKLIRSPSIPHQYWLTLQYLLKHFFKLSQTSSKNLLNARVLSELFSPLLFRFPAASSENTEHLIKIIEILISTEWNERQPAPALPPKPPKPTTVANNGM
With B6, the binding result in test [7] is “no binding”.

B7: GST-p110 fusion protein p110-1.2 (amino acids 1-81) (other)
chain: MPPRPSSGELWGIHLMPPRILVECLLPNGMIVTLECLREATLITIKHELFKEARKYPLHQLLQDESSYIFVSVTQEAEREE
On to B7, for which the binding result in test [5] and in test [6] was “no binding” each time.

B8: GSTp85β(516-724) (other)
chain: RILLNSERLKSRIAEIHESRTKLEQELRAQASDNREIDKRMNSLKPDLMQLRKIRDQYLVWLTQKGARQKKINEWLGIKNETEDQYSLMEDEDDLPHHEERTWYVGKINRTQAEEMLSGKRDGTFLIRESSQRGCYACSVVVDGDTKHCVIYRTATGFGFAEPYNLYGSLKELVLHYQHASLVQHNDALTVTLAHPVRAPGPGPPPAAR
On to B8, for which, in test [7], the binding result was “no binding”.
On to MPPRPSSGELWGIHLMPPRILVECLLPNGMIVTLE (other) [GST-p110 fusion protein p110-1.6 (amino acids 1-35)], for which the binding result in test [5] and in test [6] was “no binding” throughout.

B9: GSTp85β(486-724) (other)
chain: IFEEQGQTQEKCSKEYLERFRREGNEKEMQRILLNSERLKSRIAEIHESRTKLEQELRAQASDNREIDKRMNSLKPDLMQLRKIRDQYLVWLTQKGARQKKINEWLGIKNETEDQYSLMEDEDDLPHHEERTWYVGKINRTQAEEMLSGKRDGTFLIRESSQRGCYACSVVVDGDTKHCVIYRTATGFGFAEPYNLYGSLKELVLHYQHASLVQHNDALTVTLAHPVRAPGPGPPPAAR
For the molecule B9, in test [7], the binding result was “no binding”.

B10: GST-p110 fusion protein p110-6 (amino acids 760-1069) (other)
chain: QLGNLRLEECRIMSSAKRPLWLNWENPDIMSELLFQNNEIIFKNGDDLRQDMLTLQIIRIMENIWQNQGLDLRMLPYGCLSIGDCVGLIEVVRNSHTIMQIQCKGGLKGALQFNSHTLHQWLKDKNKGEIYDAAIDLFTRSCAGYCVATFILGIGDRHNSNIMVKDDGQLFHIDFGHFLDHKKKKFGYKRERVPFVLTQDFLIVISKGAQECTKTREFERFQEMCYKAYLAIRQHANLFINLFSMMLGSGMPELQSFDDIAYIRKTLALDKTEQEALEYFMKQMNDAHHGGWTTKMDWIFHTIKQHALN
Consider B10, for which the binding result in test [5] and in test [6] was “no binding” each time.

B11: GST-p110 fusion protein p110-4 (amino acids 601-960) (other)
chain: LLDCNYPDPMVRGFAVRCLEKYLTDDKLSQYLIQLVQVLKYEQYLDNLLVRFLLKKALTNQRIGHFFFWHLKSEMHNKTVSQRFGLLLESYCRACGMYLKHLNRQVEAMEKLINLTDILKQEKKDETQKVQMKFLVEQMRRPDFMDALQGFLSPLNPAHQLGNLRLEECRIMSSAKRPLWLNWENPDIMSELLFQNNEIIFKNGDDLRQDMLTLQIIRIMENIWQNQGLDLRMLPYGCLSIGDCVGLIEVVRNSHTIMQIQCKGGLKGALQFNSHTLHQWLKDKNKGEIYDAAIDLFTRSCAGYCVATFILGIGDRHNSNIMVKDDGQLFHIDFGHFLDHKKKKFGYKRERVPFVLTQDF
As to B11, the binding result in test [5] and in test [6] was “no binding” in each case.
